Tests used:
[1] = target: chimeric V2R harboring the carboxy-terminal tail of the β2-adrenergic receptor (V2β2AR)
[2] = target: vasopressin type 2 receptor (V2R) (UniProt P30518)
[3] = target: vasopressin type 2 receptor (V2R) (UniProt P30518); remark: listed apart in the source

arginine vasopressin (AVP) (peptide) was tested, and the potency of AVP for recruitment of Rluc-mGsq to early endosomes (EbBRET with rGFP-Rab5), cells expressing V2β2AR [1] was -7.82 LogEC50, the potency of AVP for recruitment of Rluc-mGsq to the plasma membrane (EbBRET with rGFP-CAAX), cells expressing V2β2AR [1] was -7.97 LogEC50 and the transduction coefficient (operational model) of AVP for recruitment of Rluc-mGs to the plasma membrane, cells expressing V2β2AR [1] was 8.04 Logτ/Ka. The transduction coefficient (operational model) of AVP for recruitment of Rluc-mGsq to early endosomes, cells expressing V2β2AR [1] was 7.91 Logτ/Ka.
In the case of mini G protein mGsq, the AVP-induced maximal efficacy of the AVP dose-response of Rluc-mGsq recruitment to early endosomes (EbBRET with rGFP-Rab5), parental HEK293 cells, 45 minutes [2] is reported as 0.05 ΔEbBRET, the AVP-induced maximal efficacy of the AVP dose-response of Rluc-mGsq recruitment to early endosomes (EbBRET with rGFP-Rab5), Δβarr1/2 HEK293 cells, 45 minutes [2] is reported as 0.024 ΔEbBRET and the AVP-induced maximal efficacy of the AVP dose-response of Rluc-mGsq recruitment to the plasma membrane (EbBRET with rGFP-CAAX), parental HEK293 cells, 10 minutes [2] is reported as 0.168 ΔEbBRET. For the same substance, the AVP-induced maximal efficacy of the AVP dose-response of Rluc-mGsq recruitment to the plasma membrane (EbBRET with rGFP-CAAX), Δβarr1/2 HEK293 cells, 10 minutes [2] was 0.18 ΔEbBRET, the AVP-mediated maximal efficacy of the AVP dose-response of Rluc-mGsq recruitment to early endosomes (EbBRET with rGFP-Rab5), cells expressing V2β2AR [1] was 0.061 ΔEbBRET and the AVP-mediated maximal efficacy of the AVP dose-response of Rluc-mGsq recruitment to the plasma membrane (EbBRET with rGFP-CAAX), cells expressing V2β2AR [1] was 0.183 ΔEbBRET. For the same substance, the AVP-mediated maximal efficacy of the AVP dose-response of Rluc-mGsq recruitment to early endosomes (EbBRET with rGFP-Rab5), cells expressing V2R [3] was 0.05 ΔEbBRET and the AVP-mediated maximal efficacy of the AVP dose-response of Rluc-mGsq recruitment to the plasma membrane (EbBRET with rGFP-CAAX), cells expressing V2R [3] was 0.161 ΔEbBRET.
For mini G protein mGs, the AVP-induced maximal efficacy of the AVP dose-response of Rluc-mGs recruitment to early endosomes (EbBRET with rGFP-Rab5), parental HEK293 cells, 45 minutes [2] was 0.18 ΔEbBRET, the AVP-induced maximal efficacy of the AVP dose-response of Rluc-mGs recruitment to early endosomes (EbBRET with rGFP-Rab5), Δβarr1/2 HEK293 cells, 45 minutes [2] was 0.074 ΔEbBRET and the AVP-induced maximal efficacy of the AVP dose-response of Rluc-mGs recruitment to the plasma membrane (EbBRET with rGFP-CAAX), parental HEK293 cells, 10 minutes [2] was 0.324 ΔEbBRET. The AVP-induced maximal efficacy of the AVP dose-response of Rluc-mGs recruitment to the plasma membrane (EbBRET with rGFP-CAAX), Δβarr1/2 HEK293 cells, 10 minutes [2] was 0.376 ΔEbBRET, the AVP-mediated maximal efficacy of the AVP dose-response of Rluc-mGs recruitment to early endosomes (EbBRET with rGFP-Rab5), cells expressing V2β2AR [1] was 0.15 ΔEbBRET and the AVP-mediated maximal efficacy of the AVP dose-response of Rluc-mGs recruitment to the plasma membrane (EbBRET with rGFP-CAAX), cells expressing V2β2AR [1] was 0.392 ΔEbBRET. For the same substance, the AVP-mediated maximal efficacy of the AVP dose-response of Rluc-mGs recruitment to early endosomes (EbBRET with rGFP-Rab5), cells expressing V2R [3] was 0.167 ΔEbBRET and the AVP-mediated maximal efficacy of the AVP dose-response of Rluc-mGs recruitment to the plasma membrane (EbBRET with rGFP-CAAX), cells expressing V2R [3] was 0.3 ΔEbBRET.
